What was measured:
Experiment in all cases: cryo-EM structure; endogenous human Pol III purified from HeLa POLR1C-GFP cells, not cross-linked, apo, 4.0 Å
Conditions in all cases: both partners purified
[1] = molecular target: T1, RPC8, stalk subunit of purified human Pol III (human (endogenous in HeLa), UniProt Q9Y535 1-204)
T1 construct: RPC8, stalk subunit of RNA polymerase III, human, endogenous; source: endogenous, HeLa, purified within Pol III
T1 sequence (looked up): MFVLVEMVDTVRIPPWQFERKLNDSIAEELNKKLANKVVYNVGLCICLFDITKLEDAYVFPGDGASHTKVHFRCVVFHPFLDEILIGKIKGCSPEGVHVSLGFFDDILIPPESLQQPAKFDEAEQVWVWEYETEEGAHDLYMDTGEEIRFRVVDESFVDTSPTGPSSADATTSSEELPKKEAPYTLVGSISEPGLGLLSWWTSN

[2] = molecular target: T2, RPC5, subunit of purified human Pol III (human (endogenous in HeLa), UniProt Q9NVU0 1-708)
T2 construct: RPC5, subunit of the TFIIF-like RPC4/5 heterodimer of RNA polymerase III, human, endogenous; the C-terminal extension (RPC5EXT) was not visible in the EM map; also called POLR3E; source: endogenous, HeLa, purified within Pol III
T2 sequence (looked up): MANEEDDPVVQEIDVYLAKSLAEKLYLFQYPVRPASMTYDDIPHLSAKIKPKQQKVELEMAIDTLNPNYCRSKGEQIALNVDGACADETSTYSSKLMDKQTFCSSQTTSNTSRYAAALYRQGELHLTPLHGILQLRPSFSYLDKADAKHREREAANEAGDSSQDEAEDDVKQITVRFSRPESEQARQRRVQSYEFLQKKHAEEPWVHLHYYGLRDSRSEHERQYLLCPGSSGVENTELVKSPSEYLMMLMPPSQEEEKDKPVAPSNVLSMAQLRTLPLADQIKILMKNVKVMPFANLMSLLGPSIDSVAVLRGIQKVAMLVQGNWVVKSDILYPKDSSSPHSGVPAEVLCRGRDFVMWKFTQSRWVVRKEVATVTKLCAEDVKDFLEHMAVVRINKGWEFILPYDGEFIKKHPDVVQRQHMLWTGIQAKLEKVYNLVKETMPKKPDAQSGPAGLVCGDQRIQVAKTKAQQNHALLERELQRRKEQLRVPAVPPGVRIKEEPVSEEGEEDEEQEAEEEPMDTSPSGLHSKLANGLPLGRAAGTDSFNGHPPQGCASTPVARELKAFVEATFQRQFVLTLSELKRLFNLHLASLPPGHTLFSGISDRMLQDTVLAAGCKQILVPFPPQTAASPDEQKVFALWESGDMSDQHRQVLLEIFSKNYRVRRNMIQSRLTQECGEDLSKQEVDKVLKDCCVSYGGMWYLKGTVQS

[3] = molecular target: RPABC1, subunit of purified human Pol III (human (endogenous in HeLa), UniProt P19388 1-210)

B1: RPC9, stalk subunit of purified human Pol III (natural protein)
chain: not shown
notes: RPC9, stalk subunit of RNA polymerase III, human, endogenous; source: endogenous, HeLa, purified within Pol III
binding result [1]: binds

B2: RPC4, subunit of purified human Pol III (natural protein, human (endogenous in HeLa), UniProt P05423 1-398, looked up)
chain: MSEGNAAGEPSTPGGPRPLLTGARGLIGRRPAPPLTPGRLPSIRSRDLTLGGVKKKTFTPNIISRKIKEEPKEEVTVKKEKRERDRDRQREGHGRGRGRPEVIQSHSIFEQGPAEMMKKKGNWDKTVDVSDMGPSHIINIKKEKRETDEETKQILRMLEKDDFLDDPGLRNDTRNMPVQLPLAHSGWLFKEENDEPDVKPWLAGPKEEDMEVDIPAVKVKEEPRDEEEEAKMKAPPKAARKTPGLPKDVSVAELLRELSLTKEEELLFLQLPDTLPGQPPTQDIKPIKTEVQGEDGQVVLIKQEKDREAKLAENACTLADLTEGQVGKLLIRKSGRVQLLLGKVTLDVTMGTACSFLQELVSVGLGDSRTGEMTVLGHVKHKLVCSPDFESLLDHKHR
notes: RPC4, subunit of the TFIIF-like RPC4/5 heterodimer of RNA polymerase III, human, endogenous; also called POLR3D; source: endogenous, HeLa, purified within Pol III
binding result [2]: binds

B3: RPC1, largest subunit of purified human Pol III (natural protein)
chain: MVKEQFRETDVAKKISHICFGMKSPEEMRQQAHIQVVSKNLYSQDNQHAPLLYGVLDHRMGTSEKDRPCETCGKNLADCLGHYGYIDLELPCFHVGYFRAVIGILQMICKTCCHIMLSQEEKKQFLDYLKRPGLTYLQKRGLKKKISDKCRKKNICHHCGAFNGTVKKCGLLKIIHEKYKTNKKVVDPIVSNFLQSFETAIEHNKEVEPLLGRAQENLNPLVVLNLFKRIPAEDVPLLLMNPEAGKPSDLILTRLLVPPLCIRPSVVSDLKSGTNEDDLTMKLTEIIFLNDVIKKHRISGAKTQMIMEDWDFLQLQCALYINSELSGIPLNMAPKKWTRGFVQRLKGKQGRFRGNLSGKRVDFSGRTVISPDPNLRIDEVAVPVHVAKILTFPEKVNKANINFLRKLVQNGPEVHPGANFIQQRHTQMKRFLKYGNREKMAQELKYGDIVERHLIDGDVVLFNRQPSLHKLSIMAHLARVKPHRTFRFNECVCTPYNADFDGDEMNLHLPQTEEAKAEALVLMGTKANLVTPRNGEPLIAAIQDFLTGAYLLTLKDTFFDRAKACQIIASILVGKDEKIKVRLPPPTILKPVTLWTGKQIFSVILRPSDDNPVRANLRTKGKQYCGKGEDLCANDSYVTIQNSELMSGSMDKGTLGSGSKNNIFYILLRDWGQNEAADAMSRLARLAPVYLSNRGFSIGIGDVTPGQGLLKAKYELLNAGYKKCDEYIEALNTGKLQQQPGCTAEETLEALILKELSVIRDHAGSACLRELDKSNSPLTMALCGSKGSFINISQMIACVGQQAISGSRVPDGFENRSLPHFEKHSKLPAAKGFVANSFYSGLTPTEFFFHTMAGREGLVDTAVKTAETGYMQRRLVKSLEDLCSQYDLTVRSSTGDIIQFIYGGDGLDPAAMEGKDEPLEFKRVLDNIKAVFPCPSEPALSKNELILTTESIMKKSEFLCCQDSFLQEIKKFIKGVSEKIKKTRDKYGINDNGTTEPRVLYQLDRITPTQVEKFLETCRDKYMRAQMEPGSAVGALCAQSIGEPGTQMTLKTFHFAGVASMNITLGVPRIKEIINASKAISTPIITAQLDKDDDADYARLVKGRIEKTLLGEISEYIEEVFLPDDCFILVKLSLERIRLLRLEVNAETVRYSICTSKLRVKPGDVAVHGEAVVCVTPRENSKSSMYYVLQFLKEDLPKVVVQGIPEVSRAVIHIDEQSGKEKYKLLVEGDNLRAVMATHGVKGTRTTSNNTYEVEKTLGIEAARTTIINEIQYTMVNHGMSIDRRHVMLLSDLMTYKGEVLGITRFGLAKMKESVLMLASFEKTADHLFDAAYFGQKDSVCGVSECIIMGIPMNIGTGLFKLLHKADRDPNPPKRPLIFDTNEFHIPLVT
notes: RPC1, largest subunit of RNA polymerase III, human, endogenous; also called POLR3A; source: endogenous, HeLa, purified within Pol III
binding result [3]: binds
